Experimental data as given in patent EP4700040A1, “PEPTIDE AND LUMINESCENT COMPLEX CONTAINING SAME” (Shenzhen Loggene Life Science & Technology Co., Ltd., priority 2023, dated 2024).

These binders were tested against Large subunit-rSCFV5 fusion protein (assay: cell-based or functional assay).
Chain of Large subunit-rSCFV5 fusion protein (chain, as listed by the source): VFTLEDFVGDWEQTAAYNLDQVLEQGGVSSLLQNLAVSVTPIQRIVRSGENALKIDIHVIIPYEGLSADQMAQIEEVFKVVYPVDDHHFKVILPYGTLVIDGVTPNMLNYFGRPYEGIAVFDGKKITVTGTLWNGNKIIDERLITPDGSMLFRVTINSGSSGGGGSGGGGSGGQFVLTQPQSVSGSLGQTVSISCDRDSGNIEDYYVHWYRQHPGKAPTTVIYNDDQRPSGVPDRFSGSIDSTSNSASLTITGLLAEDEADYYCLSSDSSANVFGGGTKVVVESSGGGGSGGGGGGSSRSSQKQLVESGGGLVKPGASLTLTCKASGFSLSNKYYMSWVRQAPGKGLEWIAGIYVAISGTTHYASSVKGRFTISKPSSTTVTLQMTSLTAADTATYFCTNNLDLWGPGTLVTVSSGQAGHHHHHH

| Binder | Signal-to-noise ratio at 1000 pg/ml | normalised luminescence at PCT 0 pg/ml | normalised luminescence at PCT 1.1 pg/ml | normalised luminescence at PCT 3.3 pg/ml | normalised luminescence at PCT 10 pg/ml | normalised luminescence at PCT 100 pg/ml | normalised luminescence at PCT 1000 pg/ml | normalised luminescence at PCT 10000 pg/ml | normalised luminescence at PCT 100000 pg/ml |
| --- | --- | --- | --- | --- | --- | --- | --- | --- | --- |
| VEGYRLFDKKW (peptide, part only; not given: rSCFV18 scFv part, part only) [rSCFV18-small subunit mutant fusion protein RB239] | 11.5 | 5000 | 5530 | 5620 | 5990 | 11000 | 57600 | 466000 | 2.17e+06 |
| VSGWRIHEKIS (peptide, part only; not given: rSCFV18 scFv part, part only) [rSCFV18-small subunit mutant fusion protein RA120] | 18 | 5000 | 4900 | 5260 | 5860 | 13400 | 90100 | 695000 | 2e+06 |
| VDGWRLHEKIS (peptide, part only; not given: rSCFV18 scFv part, part only) [rSCFV18-small subunit mutant fusion protein RA141] | 8.6 | 5000 | 4930 | 5410 | 6020 | 8680 | 42800 | 333000 | 1.4e+06 |
| VEGYRLFNKEW (peptide, part only; not given: rSCFV18 scFv part, part only) [rSCFV18-small subunit mutant fusion protein RB284] | 4.9 | 5000 | 5090 | 5290 | 5530 | 7040 | 24700 | 188000 | 862000 |

Molecular target: Large subunit-rSCFV5 fusion protein
Test: cell-based or functional assay
Remark: another data set of the same source

| Binder | RLU, PCT+ [RLU] | RLU, PCT- [RLU] | Signal-to-noise ratio | Signal-to-noise ratio at 1000 pg/ml | luminescence at PCT 0 pg/ml | luminescence at PCT 1.37 pg/ml | luminescence at PCT 4.12 pg/ml | luminescence at PCT 12.35 pg/ml | luminescence at PCT 37.04 pg/ml | luminescence at PCT 111.1 pg/ml |
| --- | --- | --- | --- | --- | --- | --- | --- | --- | --- | --- |
| VEGYRLFDKKW (peptide, part only; not given: rSCFV18 scFv part, part only) [rSCFV18-small subunit mutant fusion protein RB239] | 31900 | 465 | 67.7 | 31.1 | 288 | 301 | 332 | 407 | 590 | 1320 |
| VEGYRLHEKIS (peptide, part only; not given: rSCFV18 scFv part, part only) [rSCFV18-small subunit mutant fusion protein RA128] | 17900 | 387 | 45.2 |  |  |  |  |  |  |  |
| VEGYRLFDRKW (peptide, part only; not given: rSCFV18 scFv part, part only) [rSCFV18-small subunit mutant fusion protein RB186] | 27200 | 590 | 45.1 |  |  |  |  |  |  |  |
| VSGWRIHEKIS (peptide, part only; not given: rSCFV18 scFv part, part only) [rSCFV18-small subunit mutant fusion protein RA120] | 81100 | 2140 | 36.9 |  |  |  |  |  |  |  |
| VDGWRLHEKIS (peptide, part only; not given: rSCFV18 scFv part, part only) [rSCFV18-small subunit mutant fusion protein RA141] | 30600 | 463 | 65.1 |  |  |  |  |  |  |  |
| VEGYRLFNKEW (peptide, part only; not given: rSCFV18 scFv part, part only) [rSCFV18-small subunit mutant fusion protein RB284] | 3990 | 302 | 12.2 |  |  |  |  |  |  |  |
| VEGYRLFKREL (peptide, part only; not given: rSCFV18 scFv part, part only) [rSCFV18-small subunit mutant fusion protein RB152] | 37200 | 906 | 40 |  |  |  |  |  |  |  |
| VEGYRIFEKKW (peptide, part only; not given: rSCFV18 scFv part, part only) [rSCFV18-small subunit mutant fusion protein RC-286] | 5000 | 438 | 11.4 | 5.5 |  |  |  |  |  |  |
| VSGYRLFDRKW (peptide, part only; not given: rSCFV18 scFv part, part only) [rSCFV18-small subunit mutant fusion protein RC-033] | 8510 | 820 | 10.4 |  |  |  |  |  |  |  |
| VEGYRLFERKS (peptide, part only; not given: rSCFV18 scFv part, part only) [rSCFV18-small subunit mutant fusion protein RC-145] | 8200 | 808 | 10.1 |  |  |  |  |  |  |  |
| VEGYRLFEKVS (peptide, part only; not given: rSCFV18 scFv part, part only) [rSCFV18-small subunit mutant fusion protein RC-042] | 5770 | 593 | 9.7 |  |  |  |  |  |  |  |
| VEGYRLFDRVW (peptide, part only; not given: rSCFV18 scFv part, part only) [rSCFV18-small subunit mutant fusion protein RB128] | 26200 | 658 | 38.8 |  |  |  |  |  |  |  |
| VSGYRIFDKKS (peptide, part only; not given: rSCFV18 scFv part, part only) [rSCFV18-small subunit mutant fusion protein RC-044] | 10400 | 1300 | 8 |  |  |  |  |  |  |  |
| VEGYRLFDRKS (peptide, part only; not given: rSCFV18 scFv part, part only) [rSCFV18-small subunit mutant fusion protein RC-218] | 7240 | 921 | 7.9 | 6.3 |  |  |  |  |  |  |
| VSGWRIFDKKS (peptide, part only; not given: rSCFV18 scFv part, part only) [rSCFV18-small subunit mutant fusion protein RC-124] | 9280 | 1230 | 7.5 |  |  |  |  |  |  |  |
| VDGYRLFEKVS (peptide, part only; not given: rSCFV18 scFv part, part only) [rSCFV18-small subunit mutant fusion protein RC-263] | 4770 | 685 | 7 | 5.8 |  |  |  |  |  |  |
| VNGWRIFDKKS (peptide, part only; not given: rSCFV18 scFv part, part only) [rSCFV18-small subunit mutant fusion protein RC-242] | 9040 | 1520 | 5.9 |  |  |  |  |  |  |  |
| VSGYRIFEKKS (peptide, part only; not given: rSCFV18 scFv part, part only) [rSCFV18-small subunit mutant fusion protein RC-129] | 12000 | 2070 | 5.8 |  |  |  |  |  |  |  |
| VEGWRLFDRKS (peptide, part only; not given: rSCFV18 scFv part, part only) [rSCFV18-small subunit mutant fusion protein RC-232] | 18300 | 3180 | 5.8 |  |  |  |  |  |  |  |
| VSGYRLFDRKS (peptide, part only; not given: rSCFV18 scFv part, part only) [rSCFV18-small subunit mutant fusion protein RC-228] | 16300 | 3000 | 5.4 |  |  |  |  |  |  |  |
| VSGYRIFEKKW (peptide, part only; not given: rSCFV18 scFv part, part only) [rSCFV18-small subunit mutant fusion protein RC-113] | 6210 | 1180 | 5.3 |  |  |  |  |  |  |  |
| VEGYRLFEKVW (peptide, part only; not given: rSCFV18 scFv part, part only) [rSCFV18-small subunit mutant fusion protein RB172] | 41400 | 1090 | 36.9 |  |  |  |  |  |  |  |
| VEGWRLFDRVS (peptide, part only; not given: rSCFV18 scFv part, part only) [rSCFV18-small subunit mutant fusion protein RC-237] | 10800 | 2190 | 5 |  |  |  |  |  |  |  |
| VSGWRIFDRKS (peptide, part only; not given: rSCFV18 scFv part, part only) [rSCFV18-small subunit mutant fusion protein RC-041] | 11800 | 2500 | 4.7 |  |  |  |  |  |  |  |
| VSGYRLFDKKW (peptide, part only; not given: rSCFV18 scFv part, part only) [rSCFV18-small subunit mutant fusion protein RC-261] | 7220 | 1620 | 4.5 |  |  |  |  |  |  |  |
| VEGYRLFNRKW (peptide, part only; not given: rSCFV18 scFv part, part only) [rSCFV18-small subunit mutant fusion protein RB223] | 39200 | 1100 | 34.7 |  |  |  |  |  |  |  |
| VEGYRLFERVL (peptide, part only; not given: rSCFV18 scFv part, part only) [rSCFV18-small subunit mutant fusion protein RB150] | 53900 | 1630 | 32.1 |  |  |  |  |  |  |  |
| VEGYRLFNRVS (peptide, part only; not given: rSCFV18 scFv part, part only) [rSCFV18-small subunit mutant fusion protein RB027] | 102000 | 4320 | 22.6 |  |  |  |  |  |  |  |
| VEGYRLFEKKL (peptide, part only; not given: rSCFV18 scFv part, part only) [rSCFV18-small subunit mutant fusion protein RB149] | 79100 | 3590 | 21 |  |  |  |  |  |  |  |
| VEGYRLFNRVG (peptide, part only; not given: rSCFV18 scFv part, part only) [rSCFV18-small subunit mutant fusion protein RB122] | 55400 | 2600 | 20.2 |  |  |  |  |  |  |  |

Same assay, conditions: not given

| Binder | luminescence at PCT 333.3 pg/ml | luminescence at PCT 1000 pg/ml | normalised luminescence at PCT 0.0 pg/ml | normalised luminescence at PCT 1 pg/ml | normalised luminescence at PCT 3 pg/ml | normalised luminescence at PCT 10 pg/ml | normalised luminescence at PCT 30 pg/ml | normalised luminescence at PCT 100 pg/ml | normalised luminescence at PCT 1000 pg/ml | normalised luminescence at PCT 10000 pg/ml |
| --- | --- | --- | --- | --- | --- | --- | --- | --- | --- | --- |
| VEGYRLFDKKW (peptide, part only; not given: rSCFV18 scFv part, part only) [rSCFV18-small subunit mutant fusion protein RB239] | 3360 | 8950 |  |  |  |  |  |  |  |  |
| VEGYRIFEKKW (peptide, part only; not given: rSCFV18 scFv part, part only) [rSCFV18-small subunit mutant fusion protein RC-286] |  |  | 5000 | 4670 | 4640 | 4830 | 5410 | 6700 | 27600 | 236000 |
| VEGYRLFDRKS (peptide, part only; not given: rSCFV18 scFv part, part only) [rSCFV18-small subunit mutant fusion protein RC-218] |  |  | 5000 | 4940 | 4980 | 5160 | 5700 | 7490 | 31600 | 266000 |
| VDGYRLFEKVS (peptide, part only; not given: rSCFV18 scFv part, part only) [rSCFV18-small subunit mutant fusion protein RC-263] |  |  | 5000 | 5130 | 5230 | 5190 | 5650 | 7130 | 28800 | 241000 |

Same assay, conditions: not given

| Binder | normalised luminescence at PCT 100000 pg/ml | normalised luminescence at PCT 250000 pg/ml | complementary activity, luminescence at 3 min [RLU] | complementary activity, luminescence at 6 min [RLU] |
| --- | --- | --- | --- | --- |
| VEGYRIFEKKW (peptide, part only; not given: rSCFV18 scFv part, part only) [rSCFV18-small subunit mutant fusion protein RC-286] | 1.44e+06 | 2.01e+06 |  |  |
| VEGYRLFDRKS (peptide, part only; not given: rSCFV18 scFv part, part only) [rSCFV18-small subunit mutant fusion protein RC-218] | 1.76e+06 | 2.44e+06 |  |  |
| VDGYRLFEKVS (peptide, part only; not given: rSCFV18 scFv part, part only) [rSCFV18-small subunit mutant fusion protein RC-263] | 1.56e+06 | 2.23e+06 |  |  |
| AEGYRLFDRKS (peptide, part only; not given: scFv part; template fusion not stated, part only) [small subunit mutant fusion protein RD-086] |  |  | 3390 | 3220 |
| IEGYRLFDRKS (peptide, part only; not given: scFv part; template fusion not stated, part only) [small subunit mutant fusion protein RD-092] |  |  | 4900 | 4540 |
| AEPYRIFDRKS (peptide, part only; not given: scFv part; template fusion not stated, part only) [small subunit mutant fusion protein RD-099] |  |  | 221 | 52 |
